# Measurements as given in IntAct's records for PubMed 20453860.
# B1: Vacuolar protein sorting-associated protein 33 (Saccharomyces cerevisiae), P20795 (parent)
# chain: MNRFWNTKKFSLTNADGLCATLNEISQNDEVLVVQPSVLPVLNSLLTFQDLTQSTPVRKITLLDDQLSDDLPSALGSVPQMDLIFLIDVRTSLRLPPQLLDAAQKHNLSSLHIIYCRWKPSFQNTLEDTEQWQKDGFDLNSKKTHFPNVIESQLKELSNEYTLYPWDLLPFPQIDENVLLTHSLYNMENVNMYYPNLRSLQSATESILVDDMVNSLQSLIFETNSIITNVVSIGNLSKRCSHLLKKRIDEHQTENDLFIKGTLYGERTNCGLEMDLIILERNTDPITPLLTQLTYAGILDDLYEFNSGIKIKEKDMNFNYKEDKIWNDLKFLNFGSIGPQLNKLAKELQTQYDTRHKAESVHEIKEFVDSLGSLQQRQAFLKNHTTLSSDVLKVVETEEYGSFNKILELELEILMGNTLNNDIEDIILELQYQYEVDQKKILRLICLLSLCKNSLREKDYEYLRTFMIDSWGIEKCFQLESLAELGFFTSKTGKTDLHITTSKSTRLQKEYRYISQWFNTVPIEDEHAADKITNENDDFSEATFAYSGVVPLTMRLVQMLYDRSILFHNYSSQQPFILSREPRVSQTEDLIEQLYGDSHAIEESIWVPGTITKKINASIKSNNRRSIDGSNGTFHAAEDIALVVFLGGVTMGEIAIMKHLQKILGKKGINKRFIIIADGLINGTRIMNSIS
# partner: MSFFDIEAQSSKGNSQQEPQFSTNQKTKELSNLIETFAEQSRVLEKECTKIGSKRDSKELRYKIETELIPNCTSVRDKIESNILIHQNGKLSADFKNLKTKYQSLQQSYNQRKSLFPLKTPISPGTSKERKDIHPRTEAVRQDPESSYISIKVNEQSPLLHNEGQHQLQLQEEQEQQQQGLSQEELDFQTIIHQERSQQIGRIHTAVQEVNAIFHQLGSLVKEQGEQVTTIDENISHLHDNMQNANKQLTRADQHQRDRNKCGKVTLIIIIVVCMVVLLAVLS
# Variants of: B1
# Conditions: with vam3_yeast VAM3, Q12241
row,Variant,effect of a mutation on the interaction
1,D88K,decreasing interaction
2,L184P,decreasing interaction
